Values of other authors, collected in PMC12990809.

What was measured:
Test in all cases: pulldown
Details in all cases: 20 nM protein, 1.5 uM RNA pool; 20 mM HEPES pH 7.8, 70 mM KCl, 10 mM NaCl, 10% glycerol, 2 mM DTT, 0.1 ug/uL BSA; 30 min, 4 C (protocol of this paper; not …); cited from earlier work
[1] = target: T1, TVAG_267990 (Trichomonas vaginalis) (UniProt A2DLE8)
T1 sequence: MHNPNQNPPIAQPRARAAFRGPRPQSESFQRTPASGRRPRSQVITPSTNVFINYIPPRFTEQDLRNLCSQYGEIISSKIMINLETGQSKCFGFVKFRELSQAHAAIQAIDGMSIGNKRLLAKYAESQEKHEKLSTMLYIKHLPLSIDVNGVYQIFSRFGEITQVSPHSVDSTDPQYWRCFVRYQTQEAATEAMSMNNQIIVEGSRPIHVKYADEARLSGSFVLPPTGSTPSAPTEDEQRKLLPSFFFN

[2] = target: T2, rbm47 (Xenopus tropicalis) (UniProt A0A8J0QCA8)
T2 sequence: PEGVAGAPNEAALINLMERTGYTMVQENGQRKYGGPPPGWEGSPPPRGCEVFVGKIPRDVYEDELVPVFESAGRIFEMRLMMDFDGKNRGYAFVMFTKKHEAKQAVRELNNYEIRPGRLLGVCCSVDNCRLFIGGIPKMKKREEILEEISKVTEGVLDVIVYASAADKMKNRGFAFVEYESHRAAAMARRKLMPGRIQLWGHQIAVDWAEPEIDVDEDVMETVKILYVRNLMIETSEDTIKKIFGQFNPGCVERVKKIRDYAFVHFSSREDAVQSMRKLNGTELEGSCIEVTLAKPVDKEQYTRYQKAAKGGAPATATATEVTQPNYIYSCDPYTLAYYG

[3] = target: T3, Tb09.211.0930 (Trypanosoma brucei) (UniProt Q38E63)
T3 sequence: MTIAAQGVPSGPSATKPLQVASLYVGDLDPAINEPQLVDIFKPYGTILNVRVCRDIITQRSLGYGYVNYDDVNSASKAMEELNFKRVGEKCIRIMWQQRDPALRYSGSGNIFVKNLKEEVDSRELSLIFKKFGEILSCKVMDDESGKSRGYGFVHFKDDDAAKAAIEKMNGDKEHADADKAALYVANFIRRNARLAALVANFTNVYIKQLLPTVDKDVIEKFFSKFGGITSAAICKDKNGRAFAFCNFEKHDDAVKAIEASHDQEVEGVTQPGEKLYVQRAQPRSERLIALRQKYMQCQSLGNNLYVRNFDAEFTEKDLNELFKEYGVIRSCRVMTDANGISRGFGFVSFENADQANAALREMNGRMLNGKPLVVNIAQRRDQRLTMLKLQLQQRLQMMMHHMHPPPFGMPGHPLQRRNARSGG

[4] = target: eIF-2alpha (Drosophila melanogaster) (UniProt P41374)
Sequence of eIF-2alpha (Drosophila melanogaster) (P41374 whole entry): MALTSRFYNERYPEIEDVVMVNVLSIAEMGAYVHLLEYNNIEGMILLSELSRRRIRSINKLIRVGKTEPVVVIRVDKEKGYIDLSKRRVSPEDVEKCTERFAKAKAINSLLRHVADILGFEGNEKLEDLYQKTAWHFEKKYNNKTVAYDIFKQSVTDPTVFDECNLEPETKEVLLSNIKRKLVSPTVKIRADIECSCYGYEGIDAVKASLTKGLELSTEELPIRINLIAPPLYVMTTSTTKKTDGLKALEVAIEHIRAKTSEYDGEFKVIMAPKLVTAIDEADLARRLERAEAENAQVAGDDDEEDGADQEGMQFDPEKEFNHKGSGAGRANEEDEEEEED

SRSF10 (Homo sapiens) = SRSF10 (Homo sapiens) (UniProt O75494)
Sequence of SRSF10 (Homo sapiens) (O75494 1-92): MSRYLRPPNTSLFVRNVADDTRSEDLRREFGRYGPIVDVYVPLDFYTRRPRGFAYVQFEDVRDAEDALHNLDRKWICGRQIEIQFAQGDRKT

[5] = target: aret (Drosophila melanogaster) (UniProt C8VV87)
Sequence of aret (Drosophila melanogaster) (C8VV87 entry or part of it): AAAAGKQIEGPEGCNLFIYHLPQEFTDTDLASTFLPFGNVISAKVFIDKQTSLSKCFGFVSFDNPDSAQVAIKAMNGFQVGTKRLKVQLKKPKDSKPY

[6] = target: e_gw1.09.00.326.1 (Ostreococcus tauri) (UniProt A0A090N3Z5)
Sequence of e_gw1.09.00.326.1 (Ostreococcus tauri) (A0A090N3Z5 entry or part of it): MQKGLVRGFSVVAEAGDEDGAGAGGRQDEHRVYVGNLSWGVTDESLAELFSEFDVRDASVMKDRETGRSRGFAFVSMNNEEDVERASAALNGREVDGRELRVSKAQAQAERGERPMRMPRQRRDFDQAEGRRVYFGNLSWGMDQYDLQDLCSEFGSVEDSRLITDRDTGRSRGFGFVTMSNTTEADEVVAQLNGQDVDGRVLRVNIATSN

[7] = target: T4, TVAG_129710 (Trichomonas vaginalis) (UniProt A2DI67)
T4 sequence: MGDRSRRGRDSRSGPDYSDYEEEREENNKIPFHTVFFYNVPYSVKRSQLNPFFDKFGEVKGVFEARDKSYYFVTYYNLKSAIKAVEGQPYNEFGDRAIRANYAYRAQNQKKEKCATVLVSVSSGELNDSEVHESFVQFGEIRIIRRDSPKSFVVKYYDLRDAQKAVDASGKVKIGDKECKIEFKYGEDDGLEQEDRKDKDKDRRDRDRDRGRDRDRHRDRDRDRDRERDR

[8] = target: T5, syncrip (Xenopus tropicalis) (UniProt A0A8J0QJ86)
T5 sequence: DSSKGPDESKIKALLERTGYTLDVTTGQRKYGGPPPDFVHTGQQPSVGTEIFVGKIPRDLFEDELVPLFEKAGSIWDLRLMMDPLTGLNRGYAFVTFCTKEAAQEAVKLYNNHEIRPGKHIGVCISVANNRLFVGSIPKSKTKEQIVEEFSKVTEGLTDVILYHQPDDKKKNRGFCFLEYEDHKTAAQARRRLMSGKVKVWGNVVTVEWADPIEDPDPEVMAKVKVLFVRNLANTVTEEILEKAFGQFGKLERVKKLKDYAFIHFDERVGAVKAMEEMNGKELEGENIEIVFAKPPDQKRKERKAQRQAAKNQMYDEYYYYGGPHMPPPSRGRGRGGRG

[9] = target: T6, TVAG_002940 (Trichomonas vaginalis) (UniProt A2EZR7)
T6 sequence: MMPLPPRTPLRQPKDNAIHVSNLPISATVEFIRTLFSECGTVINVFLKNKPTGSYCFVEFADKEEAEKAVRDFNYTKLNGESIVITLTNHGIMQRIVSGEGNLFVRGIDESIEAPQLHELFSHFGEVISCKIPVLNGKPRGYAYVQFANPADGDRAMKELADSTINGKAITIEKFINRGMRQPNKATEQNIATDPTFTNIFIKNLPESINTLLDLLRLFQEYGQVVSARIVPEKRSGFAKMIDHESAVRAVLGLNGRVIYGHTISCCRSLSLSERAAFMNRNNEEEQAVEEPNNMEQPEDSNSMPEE

[10] = target: T7, Rb97D (Drosophila melanogaster) (UniProt Q02926)
T7 sequence: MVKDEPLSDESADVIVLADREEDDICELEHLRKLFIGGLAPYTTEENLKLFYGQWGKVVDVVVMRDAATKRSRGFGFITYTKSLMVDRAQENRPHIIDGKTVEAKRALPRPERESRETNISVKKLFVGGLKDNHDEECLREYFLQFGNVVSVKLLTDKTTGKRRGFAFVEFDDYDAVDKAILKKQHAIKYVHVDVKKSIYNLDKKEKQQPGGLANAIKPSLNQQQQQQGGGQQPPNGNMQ

[11] = target: T8, tiar-1 (Caenorhabditis elegans) (UniProt Q95QV8)
T8 sequence: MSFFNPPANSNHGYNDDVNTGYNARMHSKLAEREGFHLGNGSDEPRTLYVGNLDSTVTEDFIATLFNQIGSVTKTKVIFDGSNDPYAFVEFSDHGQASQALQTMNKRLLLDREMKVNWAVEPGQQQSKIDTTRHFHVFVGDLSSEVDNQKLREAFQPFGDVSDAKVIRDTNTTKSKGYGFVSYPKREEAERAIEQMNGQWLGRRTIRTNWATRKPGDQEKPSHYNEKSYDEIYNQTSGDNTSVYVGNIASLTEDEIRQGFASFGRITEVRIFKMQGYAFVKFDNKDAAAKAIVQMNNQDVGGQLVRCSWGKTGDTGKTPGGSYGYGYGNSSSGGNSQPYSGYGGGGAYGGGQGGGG

[12] = target: T9, e_gw1.03.00.367.1 (Ostreococcus tauri) (UniProt Q01DB3)
T9 sequence: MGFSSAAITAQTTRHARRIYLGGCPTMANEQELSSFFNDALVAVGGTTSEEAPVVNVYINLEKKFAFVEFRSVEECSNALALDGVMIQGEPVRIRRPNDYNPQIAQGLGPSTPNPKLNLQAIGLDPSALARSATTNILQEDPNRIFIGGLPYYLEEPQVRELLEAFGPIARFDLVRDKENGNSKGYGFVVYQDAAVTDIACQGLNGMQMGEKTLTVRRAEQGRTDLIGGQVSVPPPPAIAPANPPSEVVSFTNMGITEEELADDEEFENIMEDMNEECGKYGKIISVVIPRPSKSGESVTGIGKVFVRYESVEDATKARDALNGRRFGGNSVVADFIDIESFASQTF

PTBP1 (Homo sapiens) = PTBP1 (Homo sapiens) (UniProt P26599)
Sequence of PTBP1 (Homo sapiens) (P26599 other isoform, or with tags, fused parts or gaps): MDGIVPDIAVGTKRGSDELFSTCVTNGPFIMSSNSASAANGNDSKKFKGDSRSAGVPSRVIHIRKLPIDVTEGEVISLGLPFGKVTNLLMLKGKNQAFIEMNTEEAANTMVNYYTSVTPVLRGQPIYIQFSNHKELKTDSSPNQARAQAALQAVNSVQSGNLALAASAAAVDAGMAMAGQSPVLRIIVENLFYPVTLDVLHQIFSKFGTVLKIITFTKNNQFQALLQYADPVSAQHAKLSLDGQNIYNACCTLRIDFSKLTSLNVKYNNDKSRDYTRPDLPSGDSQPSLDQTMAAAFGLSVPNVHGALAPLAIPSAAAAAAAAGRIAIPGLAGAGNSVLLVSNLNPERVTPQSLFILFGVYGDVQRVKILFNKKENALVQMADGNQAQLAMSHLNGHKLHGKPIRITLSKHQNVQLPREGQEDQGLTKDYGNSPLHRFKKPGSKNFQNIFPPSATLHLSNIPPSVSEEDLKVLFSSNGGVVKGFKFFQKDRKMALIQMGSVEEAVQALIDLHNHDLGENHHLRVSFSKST

RBM47 (Gallus gallus) = target: T10, RBM47 (Gallus gallus) (UniProt A0A8V0YMK0)
T10 sequence: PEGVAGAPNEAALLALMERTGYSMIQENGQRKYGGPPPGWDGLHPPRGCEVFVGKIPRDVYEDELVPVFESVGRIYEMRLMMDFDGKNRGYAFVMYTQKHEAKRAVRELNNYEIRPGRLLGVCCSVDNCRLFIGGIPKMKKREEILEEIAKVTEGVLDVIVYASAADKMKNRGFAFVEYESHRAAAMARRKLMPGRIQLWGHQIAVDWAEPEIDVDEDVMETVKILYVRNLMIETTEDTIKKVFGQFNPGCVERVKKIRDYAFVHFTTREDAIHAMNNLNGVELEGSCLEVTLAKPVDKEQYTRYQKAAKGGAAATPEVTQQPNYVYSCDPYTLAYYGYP

ANKHD1 (Homo sapiens) = target: T11, ANKHD1 (Homo sapiens) (UniProt Q8IWZ3)
T11 sequence: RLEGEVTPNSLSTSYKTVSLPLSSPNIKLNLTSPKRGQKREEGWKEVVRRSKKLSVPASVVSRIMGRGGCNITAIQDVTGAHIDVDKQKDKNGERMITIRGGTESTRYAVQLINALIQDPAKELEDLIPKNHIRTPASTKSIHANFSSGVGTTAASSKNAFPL

[13] = target: T12, NEMVEDRAFT_v1g104011 (Nematostella vectensis) (UniProt A7S488)
T12 sequence: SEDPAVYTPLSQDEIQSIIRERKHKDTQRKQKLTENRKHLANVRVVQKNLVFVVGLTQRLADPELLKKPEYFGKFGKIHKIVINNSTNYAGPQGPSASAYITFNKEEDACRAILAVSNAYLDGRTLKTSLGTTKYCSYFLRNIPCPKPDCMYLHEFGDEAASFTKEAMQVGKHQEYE

[14] = target: T13, LmjF.35.2550 (Leishmania major) (UniProt E9AF78)
T13 sequence: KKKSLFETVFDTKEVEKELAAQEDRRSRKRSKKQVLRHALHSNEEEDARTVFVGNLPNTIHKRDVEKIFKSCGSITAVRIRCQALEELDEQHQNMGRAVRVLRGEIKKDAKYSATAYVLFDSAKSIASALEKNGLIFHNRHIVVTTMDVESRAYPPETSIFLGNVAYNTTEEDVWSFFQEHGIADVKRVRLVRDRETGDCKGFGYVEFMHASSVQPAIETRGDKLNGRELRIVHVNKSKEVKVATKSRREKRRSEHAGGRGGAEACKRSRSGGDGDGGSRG

[15] = target: T14, estExt_fgeneshHS_pg.C_730016 (Naegleria gruberi) (UniProt D2W041)
T14 sequence: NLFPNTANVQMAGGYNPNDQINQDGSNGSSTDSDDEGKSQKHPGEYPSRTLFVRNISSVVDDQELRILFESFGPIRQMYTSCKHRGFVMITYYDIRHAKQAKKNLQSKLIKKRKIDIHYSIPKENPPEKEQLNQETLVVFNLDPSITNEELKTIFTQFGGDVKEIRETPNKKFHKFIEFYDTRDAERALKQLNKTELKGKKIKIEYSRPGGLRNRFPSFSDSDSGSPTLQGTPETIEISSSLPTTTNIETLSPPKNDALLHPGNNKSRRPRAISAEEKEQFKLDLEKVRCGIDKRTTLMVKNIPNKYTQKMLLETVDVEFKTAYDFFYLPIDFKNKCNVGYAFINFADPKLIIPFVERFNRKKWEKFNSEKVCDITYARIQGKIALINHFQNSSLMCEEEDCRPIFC

[16] = target: T15, LmjF.35.4130 (Leishmania major) (UniProt E9AFP0)
T15 sequence: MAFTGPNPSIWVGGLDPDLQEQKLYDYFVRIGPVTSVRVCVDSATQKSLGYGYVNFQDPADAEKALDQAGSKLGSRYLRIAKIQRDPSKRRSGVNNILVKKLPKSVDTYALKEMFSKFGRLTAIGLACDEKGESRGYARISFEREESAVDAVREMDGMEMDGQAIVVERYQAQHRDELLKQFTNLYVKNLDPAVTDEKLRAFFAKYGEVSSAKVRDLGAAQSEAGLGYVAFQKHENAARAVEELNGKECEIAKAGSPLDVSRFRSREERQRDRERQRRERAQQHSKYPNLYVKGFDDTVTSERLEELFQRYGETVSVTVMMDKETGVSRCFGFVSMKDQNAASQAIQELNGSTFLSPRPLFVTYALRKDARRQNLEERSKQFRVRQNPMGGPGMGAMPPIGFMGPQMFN

In the case of ACCAUG [RNAcompete motif RNCMPT00259], the binding signal (z-score (mean of top ten 7-mers)) [1] is listed as 19.9.
In the case of GAUGAUU [RNAcompete motif RNCMPT00280], the binding signal (z-score (mean of top ten 7-mers)) [2] is listed as 7.8.
In the case of AGAAANA [RNAcompete motif RNCMPT00253], the binding signal (z-score (mean of top ten 7-mers)) [3] is listed as 9.59.
For CUCUGU [RNAcompete motif RNCMPT00273], the binding signal (z-score (mean of top ten 7-mers)) [4] is listed as 6.48.
In the case of AGAGAAA [RNAcompete motif RNCMPT00090], the binding signal (z-score (mean of top ten 7-mers)) (SRSF10 (Homo sapiens)) is given as 14.3.
In the case of “UNUUUGUGU [RNAcompete motif RNCMPT00270]”, the binding signal (z-score (mean of top ten 7-mers)) [5] is listed as 14.8.
For AGAACA [RNAcompete motif RNCMPT00263], the binding signal (z-score (mean of top ten 7-mers)) [6] is given as 8.19.
In the case of UGUUUG [RNAcompete motif RNCMPT00258], the binding signal (z-score (mean of top ten 7-mers)) [7] is listed as 7.64.
For AAAUU [RNAcompete motif RNCMPT00281], the binding signal (z-score (mean of top ten 7-mers)) [8] is given as 7.01.
In the case of AGAAAA [RNAcompete motif RNCMPT00257], the binding signal (z-score (mean of top ten 7-mers)) [9] is given as 12.5.
In the case of UAGGUA [RNAcompete motif RNCMPT00272], the binding signal (z-score (mean of top ten 7-mers)) [10] is given as 8.77.
In the case of UUUUUU [RNAcompete motif RNCMPT00256], the binding signal (z-score (mean of top ten 7-mers)) [11] is listed as 11.2.
For UUUUUU [RNAcompete motif RNCMPT00262], the binding signal (z-score (mean of top ten 7-mers)) [12] is given as 11.3.
For UUUUCU [RNAcompete motif RNCMPT00268], the binding signal (z-score (mean of top ten 7-mers)) (PTBP1 (Homo sapiens)) is listed as 6.14.
In the case of GAUGAU [RNAcompete motif RNCMPT00279], the binding signal (z-score (mean of top ten 7-mers)) (RBM47 (Gallus gallus)) is listed as 8.4.
For AGACGU [RNAcompete motif RNCMPT00002], the binding signal (z-score (mean of top ten 7-mers)) (ANKHD1 (Homo sapiens)) is given as 22.8.
In the case of AGACACA [RNAcompete motif RNCMPT00278], the binding signal (z-score (mean of top ten 7-mers)) [13] is given as 12.7.
For GAACG [RNAcompete motif RNCMPT00254], the binding signal (z-score (mean of top ten 7-mers)) [14] is given as 15.2.
For AAUUUUG [RNAcompete motif RNCMPT00261], the binding signal (z-score (mean of top ten 7-mers)) [15] is given as 19.4.
In the case of AAAACAAA [RNAcompete motif RNCMPT00255], the binding signal (z-score (mean of top ten 7-mers)) [16] is given as 8.22.
